# Test results as given in patent publication US10946092 (BEIJING MABWORKS BIOTECH, dated 2021).
# T1: hLAG-3-hIg fusion protein (human LAG-3 extracellular domain fused to human Fc); Sino Biological, Cat #: … (human, UniProt P18627 23-450)
# T1 construct: extracellular domain; Bought protein; also called LAG3 fusion protein; human LAG3(ECD)-hFc; not shown: human Fc
# T1 sequence (looked up): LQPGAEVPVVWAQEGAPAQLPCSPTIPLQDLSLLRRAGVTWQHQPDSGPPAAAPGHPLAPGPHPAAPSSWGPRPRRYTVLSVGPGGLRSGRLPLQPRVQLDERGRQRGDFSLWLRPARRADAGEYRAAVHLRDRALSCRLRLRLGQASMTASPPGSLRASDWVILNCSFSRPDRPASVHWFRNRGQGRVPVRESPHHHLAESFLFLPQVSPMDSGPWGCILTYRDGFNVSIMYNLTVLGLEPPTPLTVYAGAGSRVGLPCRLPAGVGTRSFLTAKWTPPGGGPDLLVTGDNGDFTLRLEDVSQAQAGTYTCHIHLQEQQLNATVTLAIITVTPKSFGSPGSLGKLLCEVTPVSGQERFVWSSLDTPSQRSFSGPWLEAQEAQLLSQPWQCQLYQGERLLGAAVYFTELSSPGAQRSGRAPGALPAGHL
# T2: monkey (rhesus) LAG3 expressed on HEK293A cells (monkey (rhesus), UniProt A0A5F8A874 23-533)
# T2 construct: whole, on cells; also called HEK293A/rh LAG3
# T2 sequence: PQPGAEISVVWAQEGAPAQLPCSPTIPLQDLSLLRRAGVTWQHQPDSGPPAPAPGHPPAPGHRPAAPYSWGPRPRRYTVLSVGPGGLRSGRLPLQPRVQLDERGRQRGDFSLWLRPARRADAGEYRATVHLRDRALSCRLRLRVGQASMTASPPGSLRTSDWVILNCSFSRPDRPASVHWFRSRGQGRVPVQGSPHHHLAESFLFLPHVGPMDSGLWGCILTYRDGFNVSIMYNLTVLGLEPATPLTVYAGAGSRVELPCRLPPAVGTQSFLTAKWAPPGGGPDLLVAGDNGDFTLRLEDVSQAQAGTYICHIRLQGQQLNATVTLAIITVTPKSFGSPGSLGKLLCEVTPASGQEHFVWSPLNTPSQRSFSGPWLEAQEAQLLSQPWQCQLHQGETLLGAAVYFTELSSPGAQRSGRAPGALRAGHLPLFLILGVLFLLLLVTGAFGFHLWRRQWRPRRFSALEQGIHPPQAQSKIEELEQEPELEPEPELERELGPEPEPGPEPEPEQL
# T3: mouse LAG3 expressed on HEK293A cells (mouse, UniProt Q61790 24-521)
# T3 construct: whole, on cells; also called HEK293A/mouse LAG3
# T3 sequence (looked up): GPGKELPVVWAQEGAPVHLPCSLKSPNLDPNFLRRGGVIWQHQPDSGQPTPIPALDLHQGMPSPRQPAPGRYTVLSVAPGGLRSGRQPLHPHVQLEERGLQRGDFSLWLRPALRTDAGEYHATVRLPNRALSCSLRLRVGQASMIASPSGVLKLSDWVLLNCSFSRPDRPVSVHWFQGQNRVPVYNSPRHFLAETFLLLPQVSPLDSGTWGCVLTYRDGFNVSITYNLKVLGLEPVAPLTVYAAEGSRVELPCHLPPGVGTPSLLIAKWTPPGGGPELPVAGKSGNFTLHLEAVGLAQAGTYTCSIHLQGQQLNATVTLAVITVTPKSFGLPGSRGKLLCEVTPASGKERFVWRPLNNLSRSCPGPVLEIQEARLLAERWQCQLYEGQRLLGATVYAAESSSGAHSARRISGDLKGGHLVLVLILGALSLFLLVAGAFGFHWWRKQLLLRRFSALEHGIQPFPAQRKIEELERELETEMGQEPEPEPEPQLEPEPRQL
# T4: recombinant mouse LAG3(ECD)-his (Sino Biological, Cat #: 53069-M08H) (mouse, UniProt Q61790 24-442)
# T4 construct: extracellular domain; Bought protein; also called Mouse LAG3-his; not shown: his tag
# T4 sequence (looked up): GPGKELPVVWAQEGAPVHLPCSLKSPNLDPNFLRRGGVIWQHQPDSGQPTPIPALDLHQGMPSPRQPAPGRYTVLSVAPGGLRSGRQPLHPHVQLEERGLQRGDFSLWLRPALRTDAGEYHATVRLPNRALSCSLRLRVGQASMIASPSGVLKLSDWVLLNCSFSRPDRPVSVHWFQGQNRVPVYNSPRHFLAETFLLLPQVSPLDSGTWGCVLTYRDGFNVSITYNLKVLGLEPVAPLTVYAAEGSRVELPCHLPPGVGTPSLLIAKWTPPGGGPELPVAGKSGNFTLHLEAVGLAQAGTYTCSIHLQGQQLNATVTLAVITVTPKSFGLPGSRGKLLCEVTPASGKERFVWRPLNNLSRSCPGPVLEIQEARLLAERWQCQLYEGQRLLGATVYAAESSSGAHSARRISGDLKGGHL
# Key:
# [1] = target: T1, hLAG-3-hIg fusion protein (human LAG-3 …); test: FACS blocking assay; antibody titrated against 10 µg/ml hLAG-3-hIg binding to MHC II on Daudi cells
# Procedure: The mixtures were then added and incubated with 2 ×10^5 Daudi cells in 100 μl PBS buffer at 4° C. for 30 minutes. The cells were pelleted (three minutes, 400×g), washed twice with 1×PBS buffer and repelleted, and added and incubated with a recombinant PE-labeled F(ab')2 anti-hIgG Fc (1:200, Life Technologies, USA, Cat #: H10104) at 4° C. for 30 minutes, and washed once with 1×PBS. Analysis of […] binding was carried out with the FACS flow cytometer (BD Bioscience).
# [2] = target: T2, monkey (rhesus) LAG3 expressed on …; test: FACS on HEK293A/rh LAG3 cells
# Procedure: (§1) Briefly, 10^5 HEK293A cells in 50 μl PBS buffers were seeded into each well of the 96-well plates and then added with 50 μl of serially diluted anti-LAG3 antibodies (5-fold dilution, starting from 40 μg/ml). After incubated at 4° C. for 1 hour, plates were washed 3 times with PBST. Then, an APC coupled Goat Anti-Mouse IgG (BioLegend, US, Cat #: 405308) diluted 500× was added to the plates. After incubation at 4° C. for 1 hour, the plates were washed with PBS for 3 times and then cell fluorescence was monitored using a FACS machine (BD).
# [3] = target: T3, mouse LAG3 expressed on HEK293A cells; test: FACS on HEK293A/mouse LAG3 cells
# Procedure: as §1
# [4] = target: T4, recombinant mouse LAG3(ECD)-his (Sino …); test: ELISA, coated mouse LAG3-his
# Procedure: Species-cross-reactivity of the 12 LAG3 mAbs to monkey or mouse LAG3 was further tested by direct ELISA. Briefly, 50 µl of 500 ng/ml monkey LAG3(ECD)-hFc (ACRO, CN, Cat #: LA3-05252) or mouse LAG3-his (Sino Biological, CN, Cat #:53069-M08H) was coated on 96-well ELISA plates followed by incubation with 100 µl of serially diluted anti-LAG3 antibodies (starting from 40 µg/ml). Goat anti-mouse IgG conjugated with HRP (Sigma, US, Cat #: A9309-1 ml) was added then.
EC50 [1] [nM],EC50 [2] [nM],Binder,binding result [3],binding result [4]
13,0.39,"mouse anti-LAG3 monoclonal antibody 101F4 (antibody, V domains shown) VH: EVQLEQSGAELVRPGASVTLSCKASGYTFTDYEMHWVKQTPVYGLEWMGAIDPETGGIVYNQRFKGKAILTADKSSSTAYMELRSLTSEDSAVYYCTGAGWGYWGQGTTLTVSS VL: DIVITQSPSSMYASLGERVTITCKASQDINSYLSWFQQKPGKSPKTLIYRANRLLDGVPSRFSGSGSGQDYSLTISSLEFEDMGLYYCLQYDEFPFTFGSGTKLEIK",no binding (tested: starting from 40 µg/ml),no binding (tested: starting from 40 µg/ml)
9.3,6.5,"mouse anti-LAG3 monoclonal antibody 134G10 (antibody, V domains shown) VH: EVQLVESGGDLVKPGGSLKLSCAASGFTFSSFGMSWVRQTPDKRLEWVGIISSGGTYTFYPDILKGRFTISRDNAKNTLYLQMSSLKSEDTAMYYCARVYSDYDGRFDYWGQGTTLTVSS VL: DIVMTQSPSSLSVSAGEKVTMNCKSSQSLLNSGNQKNYLAWYQQKPGQPPKLLIYGASTRESGVPDRFTGSGSGTDFTLTISSVQAEDLAVYYCQNDHSYPLTFGAGTKLELK",no binding (tested: starting from 40 µg/ml),no binding (tested: starting from 40 µg/ml)
